Read-outs that look alike come from different tables or passages of the source.
Tests used:
[1] = target: T1, human PCSK9 (proprotein convertase subtilisin kexin type 9) (human, UniProt Q8NBP7 31-692); assay: SPR (ProteOn), PCSK9 immobilized directly, 25 C
T1 construct: immobilized directly (ProteOn), biotinylated (Octet) or in solution, according to the assay; also called hPCSK9; PCSK9-AF647 (labelled form)
Method: (§1) The binding characteristics were characterized by Surface Plasmon Resonance (SPR). […] This allowed kinetic determination in the absence of regeneration. […] Evaluation of the kinetic parameters was performed using the Langmuir interaction model and constant parameter fitting with the ProteOn Manager software.

[2] = target: T1, human PCSK9 (proprotein convertase …); assay: cell-based or functional assay
[3] = target: T1, human PCSK9 (proprotein convertase …); assay: SPR (ProteOn), 25 C
[4] = target: T1, human PCSK9 (proprotein convertase …); assay: cell-based or functional assay; remark: listed apart in the source
[5] = target: T1, human PCSK9 (proprotein convertase …); assay: BLI (Octet Red), 37 C
Method: Tips were then immersed into a buffer-only well for observation of Adnectin dissociation. Experiments were performed in a temperature controlled environment at either 25 or 37° C., and the oscillation speed was set at 1500 rpm.
Binding interaction analysis was performed using proprietary software from Fortebio (Fortebio Data Analysis Software version 6.3.0.36). Global fits were performed for all samples, using a 1:1 binding model. The nature of these global fits constrained all values of concentration to a single pair of association and dissociation rates that were themselves constrained to each other. Affinities (KD), association and dissociation rates were averaged over the various loading levels used in the analysis.

[6] = target: T1, human PCSK9 (proprotein convertase …); assay: ITC, 37 C
[7] = target: T1, human PCSK9 (proprotein convertase …); assay: PCSK9:EGFA FRET, competitor EGFA peptide
Cynomolgus PCSK9 = target: T2, Cynomolgus PCSK9 (cynomolgus monkey, UniProt A0A7N9D9N8 150-747); assay: SPR (ProteOn), PCSK9 immobilized directly, 25 C
T2 construct: also called cyno PCSK9; cPCSK9
Method: as §1

[8] = target: T1, human PCSK9 (proprotein convertase …); assay: PCSK9:ATI-972 FRET at 5 nM human PCSK9, competitor biotinylated ATI-972
[9] = target: T1, human PCSK9 (proprotein convertase …); assay: PCSK9:EGFA FRET at 5 nM PCSK9, competitor EGFA peptide
[10] = target: T3, human PCSK9 (proprotein convertase subtilisin kexin type 9) (human, UniProt Q8NBP7 31-692); assay: FRET, competitor EGFA peptide
T3 construct: Directly immobilized (SPR ProteOn), biotinylated (BLI), or in solution, depending on the assay; also called hPCSK9
From the text: (§2) Table 11 summarizes the overall data from these three FRET assays.

cynomolgus monkey PCSK9 [11] = target: T4, cynomolgus monkey PCSK9 (cynomolgus monkey, UniProt A0A7N9D9N8 150-747); assay: FRET, competitor EGFA peptide
From the text: as §2

[12] = target: T3, human PCSK9 (proprotein convertase …); assay: FRET direct binding, anti-his6 antibody
From the text: as §2

[13] = target: T3, human PCSK9 (proprotein convertase …); assay: SPR ProteOn, PCSK9 immobilized, 25 C
Method: as §1

cynomolgus monkey PCSK9 [14] = target: T4, cynomolgus monkey PCSK9; assay: SPR ProteOn, PCSK9 immobilized, 25 C
Method: as §1

[15] = target: T3, human PCSK9 (proprotein convertase …); assay: BLI, biotinylated hPCSK9 on sensor tips
[16] = target: T3, human PCSK9 (proprotein convertase …); assay: SPR ProteOn, 25 C
Method: as §1

cynomolgus monkey PCSK9 [17] = target: T4, cynomolgus monkey PCSK9; assay: SPR ProteOn, 25 C
Method: as §1

[18] = target: T3, human PCSK9 (proprotein convertase …); assay: cell-based or functional assay; remark: listed apart in the source
[19] = target: T3, human PCSK9 (proprotein convertase …); assay: FRET, competitor ATI000972
From the text: as §2

B1: 1459D05 (designed binder)
chain: MGVSDVPRDLEVVAATPTSLLISWPPPSHGYGYYRITYGETGGNSPVQEFTVPPGKGTATISGLKPGVDYTITVYAVEYPYKHSGYYHRPISINYRTEIDKPSQHHHHHH
notes: also called ATI000891; ATI-891
In the case of B1, the Kd [1] is reported as 1.6 nM, the “LDLR Depletion (% inhibition at 75 nM)” value [2] is reported as 66.8% and the “LDLR Depletion EC50” value [2] is reported as greater than 200 nM. The Kd [3] was 1.58 nM, the “DiI-LDL uptake in HepG2 cells, EC50” value [4] was 190 nM and the “percentage of PCSK9 inhibition at 75 nM” value [4] was 66.8%. The Kd [5] was 14.4 nM, the Kd [6] was 26 nM and the EC50 [7] was 4 nM.

B2: 2013E01 (designed binder)
chain: MGVSDVPRDLEVVAATPTSLLISWVPPSDDYGYYRITYGETGGNSPVQEFTVPIGKGTATISGLKPGVDYTITVYAVEFPWPHAGYYHRPISINYRTEIDKPSQHHHHHH
notes: unmodified (not PEGylated) Adnectin; also called ATI001081
In the case of B2, the Kd (Cynomolgus PCSK9) is reported as 8 nM, the “LDLR Depletion (% inhibition at 75 nM)” value [2] is reported as 166% and the “LDLR Depletion EC50” value [2] is reported as 10 nM. The Kd [3] was 0.29 nM, the “DiI-LDL uptake in HepG2 cells, EC50” value [4] was 160 nM and the “EC50 (nM), PCSK9-induced LDLR depletion from HepG2 cell surface” value [4] was 12.4 nM. For the same binder, the “PCSK9-induced LDLR depletion in HepG2 cells, EC50” value [4] was 9 nM, the “percentage of PCSK9 inhibition at 75 nM” value [4] was 152% and the Kd [5] was 1.51 nM. For the same binder, the EC50 [8] was 2.8 nM, the EC50 [7] was 1.6 nM and the EC50 [9] was 3.7 nM.

B3: 1922G04 (designed binder)
chain: MGVSDVPRDLEVVAATPTSLLISWRPPSHAYGYYRITYGETGGNSPVQEFTVPIGKGTATISGLKPGVDYTITVYAVEYPWKGSGYYHRPISINYRTEIDKPSQHHHHHH
notes: Anti-PCSK9 Adnectin, His6-tagged; also called ATI001057; ATI-1057
Work on B3 yielded an EC50 [10] of 1.2 nM, an IC50 [10] of 1.2 nM and an EC50 (cynomolgus monkey PCSK9 [11]) of 26.6 nM. It also gave an EC50 [12] of 2.5 nM, a Kd [13] of 0.094 nM and a koff [13] of 5.08e-05 s⁻¹. The kon [13] was 541000 M⁻¹ s⁻¹, the Kd (cynomolgus monkey PCSK9 [14]) was 15 nM and the koff (cynomolgus monkey PCSK9 [14]) was 0.007 s⁻¹. For the same binder, the kon (cynomolgus monkey PCSK9 [14]) was 465000 M⁻¹ s⁻¹, the Kd [15] was 0.255 nM and the koff [15] was 0.00014 s⁻¹. For the same binder, the kon [15] was 532000 M⁻¹ s⁻¹, the Kd [16] was 0.09 nM and the Kd (cynomolgus monkey PCSK9 [17]) was 15 nM. For the same binder, the “LDLR Depletion EC50” value [18] was 10 nM and the IC50 [19] was 2 nM.

B4: 2011H05 (designed binder)
chain: MGVSDVPRDLEVVAATPTSLLISWVPSSHAYGYYRITYGETGGNSPVQEFTVPVGVGTATISGLKPGVDYTITVYAVEYAFEGAGYYHRPISINYRTEIDKPSQHHHHHH
notes: Anti-PCSK9 Adnectin, His6-tagged; also called ATI001091
Work on B4 yielded an EC50 [10] of 2.7 nM, an IC50 [10] of 2.7 nM and an EC50 (cynomolgus monkey PCSK9 [11]) of 17.2 nM. The EC50 [12] was 2 nM, the Kd [13] was 0.079 nM and the koff [13] was 9.76e-06 s⁻¹. It also gave a kon [13] of 118000 M⁻¹ s⁻¹, a Kd (cynomolgus monkey PCSK9 [14]) of 23.1 nM and a koff (cynomolgus monkey PCSK9 [14]) of 0.0044 s⁻¹. For the same binder, the kon (cynomolgus monkey PCSK9 [14]) was 190000 M⁻¹ s⁻¹, the Kd [15] was 0.293 nM and the koff [15] was 8.2e-05 s⁻¹. The kon [15] was 286000 M⁻¹ s⁻¹, the Kd [16] was 0.08 nM and the Kd (cynomolgus monkey PCSK9 [17]) was 23.1 nM. For the same binder, the “LDLR Depletion EC50” value [18] was 12 nM and the IC50 [19] was 1.4 nM.
